Assay results: patent publication EP2042517A1

Experiments:
[1] = molecular target: human V158 FcγRIIIa extracellular region fused with GST (human) (UniProt P08637); test: AlphaScreen competition
[2] = molecular target: FcγRIIIa on human PBMCs, heterozygous V158/F158 (human) (UniProt P08637); test: cell-based or functional assay
[3] = molecular target: His-tagged V158 FcγRIIIa (human) (UniProt P08637); test: SPR, His-tagged receptor immobilized, antibody flowed
[4] = molecular target: F158 FcγRIIIa used in SPR (human) (UniProt P08637); test: SPR
[5] = molecular target: FcγRIIIa on human PBMCs, homozygous F158/F158 (human) (UniProt P08637); test: cell-based or functional assay

| Substance | Fold vs WT [1] [fold] | ADCC EC50 (DoHH-2 target cells, human PBMCs) [2] [ng/mL] | further results |
| --- | --- | --- | --- |
| alemtuzumab A298H (antibody) | 0.27 |  |  |
| alemtuzumab S239D/I332E (antibody) |  | 3 |  |
| alemtuzumab V264I/I332E (antibody) |  | 4 |  |
| alemtuzumab V264I/N297D/I332E (antibody) | 0.05 |  |  |
| wild-type alemtuzumab (antibody) |  | 9.9 | Kd [3]: 68 nM; Kd [4]: 730 nM |
| wild-type rituximab (antibody) |  |  | ADCC EC50 (WIL2-S target cells, human PBMCs) [5]: 1.7 ng/mL |
